The source of these data is patent publication US20180371492A1 (WAYNE STATE UNIVERSITY, published 2018).

For the experiment, the target named is T1, purified androgen receptor (AR) (human, UniProt P10275 1-920, limits assumed).
T1 construct: also called purified AR
T1 sequence: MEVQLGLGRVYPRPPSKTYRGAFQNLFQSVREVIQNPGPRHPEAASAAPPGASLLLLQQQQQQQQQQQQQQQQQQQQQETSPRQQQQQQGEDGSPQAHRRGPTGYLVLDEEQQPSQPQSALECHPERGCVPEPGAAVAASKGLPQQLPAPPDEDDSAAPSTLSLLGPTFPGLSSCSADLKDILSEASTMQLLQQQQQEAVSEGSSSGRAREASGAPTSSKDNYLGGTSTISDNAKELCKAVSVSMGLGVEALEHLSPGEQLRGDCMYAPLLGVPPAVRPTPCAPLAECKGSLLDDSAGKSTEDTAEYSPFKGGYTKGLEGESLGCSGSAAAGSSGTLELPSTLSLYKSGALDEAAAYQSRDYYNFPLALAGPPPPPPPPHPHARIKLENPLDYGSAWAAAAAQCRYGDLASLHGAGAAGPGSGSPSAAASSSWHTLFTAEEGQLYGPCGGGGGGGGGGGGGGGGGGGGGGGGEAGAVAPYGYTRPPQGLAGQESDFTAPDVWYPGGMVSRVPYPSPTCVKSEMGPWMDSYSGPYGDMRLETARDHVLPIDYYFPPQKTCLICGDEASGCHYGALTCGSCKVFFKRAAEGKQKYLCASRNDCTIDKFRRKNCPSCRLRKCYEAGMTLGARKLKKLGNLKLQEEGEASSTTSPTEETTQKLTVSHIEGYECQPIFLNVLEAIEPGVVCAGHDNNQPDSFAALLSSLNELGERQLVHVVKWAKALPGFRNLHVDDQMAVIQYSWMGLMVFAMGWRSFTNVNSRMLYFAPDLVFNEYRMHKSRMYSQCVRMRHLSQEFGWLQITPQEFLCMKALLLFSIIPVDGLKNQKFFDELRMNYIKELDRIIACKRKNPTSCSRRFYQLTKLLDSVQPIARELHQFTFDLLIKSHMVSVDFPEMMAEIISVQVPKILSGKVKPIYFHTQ
In words: SPR, purified proteins. (Surface plasmon resonance follows binding to a sensor surface in real time, without labels.)

B1: ELK1 (ETS transcription factor (ELK1), transcript variant 1) (other)
chain: MDPSVTLWQFLLQLLREQGNGHIISWTSRDGGEFKLVDAEEVARLWGLRKNKTNMNYDKLSRALRYYYDKNIIRKVSGQKFVYKFVSYPEVAGCSTEDCPPQPEVSVTSTMPNVAPAAIHAAPGDTVSGKPGTPKGAGMAGPGGLARSSRNEYMRSGLYSTFTIQSLQPQPPPHPRPAVVLPNAAPAGAAAPPSGSRSTSPSPLEACLEAEEAGLPLQVILTPPEAPNLKSEELNVEPGLGRALPPEVKVEGPKEELEVAGERGFVPETTKAEPEVPPQEGVPARLPAVVMDTAGQAGGHAASSPEISQPQKGRKPRDLELPLSPSLLGGPGPERTPGSGSGSGLQAPGPALTPSLLPTHTLTPVLLTPSSLPPSIHFWSTLSPIAPRSPAKLSFQFPSSGSAQVHIPSISVDGLSTPVVLSPGPQKP
notes: also called purified ELK1; ELK1 polypeptide
B1 came in with a dissociation constant Kd of 0.019 µM.

In general, Kd refers to the equilibrium constant for the complex coming apart.
